Test results reported in a protein production outcome set (Wang et al. 2014).

Assay: label from the status in PepcDB records
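Further: failed if final PepcDB status was selected cloned or expressed and not failed if soluble or beyond.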

Sequence | protein production
MPTTTTDPNQKQAELSPDELQRYSRHLTLPEFGREGQEALKNASVLLVGAGGLGSPAATYLAAAGVGRIGLVDFDSVEASNLQRQILYGTSDVGRPKLDAASERLEDLNPHVDVETHEVRLTSDNALDIIDQYDVVADGTDNFPTRYLVNDACVMTGTPNVYASIFRFEGQVSVFATEDGPCYRCLYEEPPPPGLVPSCAEGGVLGILPGFIGTLQATEVIKVLTGVGEPLVGRLLMSDALNMDFRTVNVPTNPECPVCGDDPTVTELIDYEAFCGLPQSDESSPNGTADSDVSDTDDAVPETSVHDLKQRRDAGDAPFVLDVREPYEAEIASLDADQLIPVDDLEARLDELDAGPEEEIVVHCRSGARSAKATAFLREQGYDASNLEGGVLAWSEEIDDSVPQY | failed
MAIGIAANRLELLQIADAVAREKGIEKEVVIEAIEDALQKAARARYGAEHDIRVKIDPKTGETTQKRVIEVVSDDAELEGEIGKMPFSIAKRTWRDAEIGKVYEEVLPPFEIGRVQTQMARQVVMHKVREAERERQYDEYKDRVGEIVNGSVKRVEYGNVIVDLGRGEGIMRRDQSIPRENFNVGDRIRAYIYDVRRETKGPQIMLSRAHGGFMAKLFAQEVPEVYDGVIEIRAVARDPGSRAKMAVISNDGSIDPVGACVGMRGSRVQAVVAELQGEKIDIIQWSEDEATFIVNALAPAEVSKVVMDEEDERVEVVVPDEQLSLAIGRRGQNVRLASQLTGWQIDIMTESQESERRQREFAERTALFQEALDVDEVIAQLLVTEGFAAVEDVAYVEPHEIASIEGFDEETAEELQTRAREFLEKEAAELDAKRKALGVEDELLTIEGVTLAMAVALGEGDVKSIEDLAGLVPDDMRGWFENKGGERVREPGILESFNLSPEDAEALIMRARIAMGWVEAPPEPEPEPEFEEESSAEGDVVAEAEEEA | failed
MEPSAKHLQLQTLLSERHAYLMEGNREAMHQLLSSDFSFIDGQGRQFDAETYLDHYVDPDQIQWSNQISESMVVEVFETTALVQEIVEDHFSYGRSMYIGRFRSVSLYHWANEGWKWHFHQLTPLDPS | not failed
QNHFHVFVGDLSPQITTEDIKAAFAPFGRISDARVVKDMATGKSKGYGFVSFFNKWDAENAIQQMGGQWLGGRQIRTNWATRKPPAPKSTYES | failed
MKIACVVLTYNRLSLLKRCIDSIRNQTYQEFDIYVIDNASTDGTAHWLSLQNDLTVISIHENKGPANGFYTCLQVPYDDGYDWIWMMDDDGVADKGQLEELLNKTVKNNLYFTNALVCNIDNPEKIAFGAKKTIDTQREELIKGNINPFNGTFIHRRVIEKNGNIMREMYMYGCETEYQLRAIKNGFQVATVTSAIHYHPSPKVSICHLIPYIKYCSIIDYPIDTLFYIRNKAYINYTYLGFKRSLFMITSYSLYYLFRLKIRKVLLFWKYYREGCKGVVGNKKQLEHHHHHH | not failed
MAEEQAATAMETSAVEKQPETTTEAEAPSLTTKRMVVAIDESDSSFYALQWVIDHFSNLLLTTAAAEAESGMLTVIHVQSPFNHFAAFPAGPGGATAVYASSSMIESVKKAQQETSAALLSRALQMCRAKQIRTETLVLEGEAKEMICEAVEKMHVDLLVVGSRGLGKIKRAFLGSVSDYCAHHANCPILIVKPPKEMTK | failed
MTQWASWKQAIVSLAMLVSFSLFGQQNVQTPPEVVQARFIGNETCIDCHQVEVEAWQGSHHDMAMRHADSESVLGNFDNQAVEHQGKANRFYRKGDEYWVNIQGPDGQWHDYKISYTFGWVPLQQYMVEFDDGRIQLIPFAWDSRSVEQGGQRWFHLYPDTTTTDEFYWTNTGQNWNFMCADCHSTNLKKNYDAQSNTYQTTWSEINVSCEACHGPASLHVEMAKQAKQNGMPIATANHYGFSRDLSAAVKEWVYKEGHSTLQPKDIVPTNQVQTCAQCHSRRTQLNEEADHVKGAFLDKYRLSLITPELYYHDGQIYDEDYVYGSFLQSAMAEKGVTCTNCHDPHSAQLKIPEEAVCAQCHVASDYLPENHTFHQANTEASKCTTCHMPETTYMQVDPRRDHSWHVPRPDLSKHINTPNVCTACHDDKDAKWADEQIGQWFPKSKYRNTQHFSVAFYADAIGHRGGSDALAYTAQDSSISDIIRASALERMAGNTGQNTLVALARAVKHENEMIRLGAVAGSAGYDFSDRWQILQPLLSDPVLSVRTEAAAALVSHYGEMNPLQRERIQKPLDEYMDIQRFNADRGFGRTNLANVYRSLGEASKAIELYQQAIDIEPYFENSYVNLADMYRRQGDEAKAVQILNAGMKAQPKSSSLPYSAGLALLRQGNSKQANQYLKQAAESAKDNAQYWYVYGLALEKSDVLEASKALNKAFEVGGDPRHLYAQCEVLARNYRQGGVAFAFEQCTKQLGAHAPEEVIQQLKATVTTKK | failed
MSRMRVLRLRLYGVVFLAVLALLLSLSVAVYQQVFTPAVRIKLEADSLGNQLDPRADVKLRGLLVGEVRAVHADGTKATLDIALKPEYVASIPSDAHARLLPKTLFGEKYVDLVAPARSSARPIRAGDVITQDRTRVGIELQQLMNDLLPLLRTVQPGKLNATLSAFATALEGRGDRIGDNLTRVEDYLHRLNPHLPSLTEDFARLADVAEVYGDAAPDLMEILRNTVTTSRTLVEQRDRLASALTTTATAAGTADDFLDANGDRLITLGRVSRPTLDLFARYSPEYPCLFAGLVREEQASEQAFRGGKMHITLEVVRQQGAYEPGEYPRYDDRSGPNCRDLPHPPVPAPGVHLNDGSTKGSASGGPGGVSATRAEQRSVGSLVAPVLGVPADQVPPVATLLFGPMARGTAVSVA | failed
PATPKKIKKEKKVPKLPRKDYWQAAMVIIISSIVLIASLFMISPLSRQKEITVSGNKNAIESQLIEELGIKKSDYLTTLLFQANRFERNLKSKDKWVKEAKLVYHFPNHFTLRVKEYRIIAYRQTDKGYVPILENGTRVDTVNASELPGSFVTINLDQEKEVRELVQKLAKLDKSLVGSIKVISSVNSSSTKDLLLLEMKDNNSVRVPLSEIDTKLPYYSKIKKNLTDGSIVDMEVGIYSTTADIEASIAEHKTTATTESSENS | failed
SAESWLRLSGAGPAEEAGPEGGLEEPDALDDSLTSLQWLQEFSILNAKAPALPPGGTDPHGYHQVPGSAAPGSPLAADPACLGQPHTPGKPTSSCTSRSAPPGLQAPPPDDVDYATNPHVKPPYSYATLICMAMQASKATKITLSAIYKWITDNFCYFRHADPTWQNSIRHNLSLNKCFIKVPREKDEPGKGGFWRIDPQYAERLLSGAFKKRRLPPVHIHPAFARQAAQEPSAVPRAGPLTVNTEAQQLLREFEEATGEAGWGAGEGRLGHKRKQPLPKRVAKVPRPPSTLLPTPEEQGELEPLKGNFDWEAIFDAGTLGGELGALEALELSPPLSPASHVDVDLTIHGRHIDCPATWGPSVEQAADSLDFDETFLATSFLQHPWDESGSGCLPPEPLFEAGDATLASDLQDWASVGAFL | failed
MELPVVVQQALGDNAPGVSFRSVSQIDTGHLLRMVLLSDDQGNLQAICRRNDMLDLEALNKRLGRDLRMMQRREQVRVRQKAGLQELPALPSLTGWPTVVDRRVDELEAVALELGEQDLGLMMPAEDFRQLTAKAARHDFAVDTANISVNLDNHAADRDQLHSAIKRFTGLRIQQRLEDTLELPPLPETAQRIIHLRVNPNAVMGDLVDVVESDPSLAAQVVSWASSSFYAAAGRVHSVHDAVSRVLGFDLVMNLAMGLALGRALKHPQDHPDGYVDYWQQAIWQAQSAGILASMMPRGQRPLFGLAYLAGLLHNFGHLVLAQVFPPHFKLVCRSLEVSPHIDSSVIEHYLLGITREQIAAQLMENWGMPDEVTLAIRYQKNPAYDGPHNVYARLLWLGRQLLTERGVALGAGESATQAVYDELGLDRELVQEQFDELVRRKDSIMAMAGMMSQGG | not failed
MDSAAVAFTTLDYVIFGVYLFVIVGLGLWVSQEEEGEEKDSADYFLASKALPFWAIGSSLIAANISAEQFIGMSGSGFRVGLAIASYEWMAAVTLLVIAWFFLPIYLEKEIYTMPQFLEERYDGRVRMLLAIFWLLVYVFVNLTSVLYMGGLSINVIMGFPLWASVLGLAAVATAYSLYGGLKAVAWTDVVQVVVLVGGGLLTTWVALDAYGGSEAGVVGGFTQLMGDASGRFNMILFEGELMYRNDEGALKDAYQLLPGLSVLFGGLWVANLFYWGCNQYIIQRALAAKSLKEAQRGLAFAGYLKLLLPLIVVVPGIVAFALDAPIQRGDEAYPWLLGEYVGSGFRGLAFAALVAAIISSLASMMNSASTIFTMDLYRNYTSREDVSERRLVRIGRAVALICIVVAAALAPQLADLDQVFQYIQEYTGFVSPGVLAIFVLGLFWSKATPNAALVSAVLSIPLSAAFKFWTPGVAFLNRMLIVFFISVALIVAISLLENEGEDHPKAIDVGGIERERDPIYNVAAFGILAITAALYAFFW | failed
DVKEFCKKSLRVRKRQLKDLLYSLEDDNKELFERVIKLFENFKNRDEIFYEKISEEIVWTVKKNILFVNIEEGILKPQSKLDLLAIREILDEIKT | failed
MKDILWLMQKTLSVLLKNKKGLLIIISLPIIGTLISFSIYGNAGQGALNIGVINKENESIANDTVKFLEEINHVKVSKVKESEVEDKLTSKKLDGVITLQSGFSESVREGKPSNIEISSIKGDQVTAFIKSYLYNYIDNVAAISKVAGTDQSAFDTMYAGYQKSSFKVKTETLEDTSKNKDMTNQTMGYLIMFMLFSAVNLSGYILKEKENRTYFRLLSTPIDGKKFILSNVGVNMIILTVQIMITILFLTNVFHTNINMPFIVMVGVLMIFALIAIGMSLVIVAFSKNSSSANAMQNMVIVPTCLLAGCYFPYDIMPSAVQKVANFLPQRWLLDTVSKLQQGIPFSELYLNILILFAFAIAFFLIAIYKFGRNNDARNFV | failed
MPTYPPSLLQSLLQYIPERELAWDCGAGSGQLTHMLASYFDQVVGTDISQTQLSHAEYYDNISYQLQPAENTTFPDHCFDLITVAQAIHWFDFEAFYAEVRRTIKPSGILAVVGYGLIHVDDLEINAKVQHLYHQTLNGFWDAERHYVDELYQTIPFPFDEIEMPAFQIEAQWTLQQLLQYLNTWSAVQHYILEKNLDPVQQLLSKGLEHHHHHH | failed
MQKDKILKKIIVLCFFIFYNFNFFGLAVPSLSGPVVDKAGILSRSEFEKIENFLLDLDQKSKVQIAVLIIPSLEGESIEDYSMQVAEEWKLGDKEKDSGALLVVAVKDKKLRIEVGYGLEENLTDSRSGQIIRNFIAPQFRSGNYGEGIYDGIKAMAAYASEDESLLKEIAVSDEDDEGGFPQALLFFLFVYLMISKFSPGGLFWIFYLLSRSGRAGRSFNGRSSSRGSFFGGSIGRSSGRGFSGGGFSGGGGSFGGGGASGGW | failed
MTTRRLPRPCRFNPTIHVVLAVLALLLSGLAAFADLPALTGRVVDDAGIIDAGTRAALTQKLADFEKKGSDQIVVATIPSLGGEEIEPYANRLFRFWKLGQAGENNGVLLLVAKNDHKMRIEVGYGLEGTLTDLHTKLIIENDMVPAFRAGDFSGGISKAVDDMVMVLEGNPEELEARGKRNPADSSTPIDPIVTVFLILWATMFFGGLAMAFLPPMFGTKLSPGVYRWLGMTFRYGKGPSGSSGGSGWTTGSSGGGWSSGSSSSGWSSGSSSSGGGFSGGGGSSGGGGSSGSW | failed
MTRSQTRPRRQALAEILGLMGLLVAGGLLAGQGGQTLARSVGGLGGASAPMPSRPWHGSNHTPLPSRGDGMAALDHNLITAASIGDLDLVNRLLKAGASAQATDERGRTALLAAVYNRRGDVMLVLIQAGADVNRKDDEGNSPFLLAAATNQIDVVRLALSHGADLNSTDRYDGTALIAASQHGNVEIVKLLISAGVPVDRVNQLGWTALLEAIILGDGSSRYEDIVQALLDAGADANLADREGVTPSRHARERGYKTMVRMLMRARGH | failed
HRWITRPKFTHFDLHTLNWDLCLTQANHKSNLALEMLKMLLDSLPETVEKIQTALGQNDQATMLSTIHKLHGASCYCGVPTTQRLCQEIESALKRQTPVEDLEPEILELLDELTKVESAVKQVLSQLSAE | not failed
MGGIYRLSLKSTEATAERLSCDTRCNYEDRDLAYSPDGRWLAIARRFSNISEDIFIRDLASAHEKRLTQGLEDIRGLSWTPDSQALVFATEDSGSSNGFTLDINTAQIRSLDVEGMSYPSSVSAEGELVYHQYHRQFQMAYFSLGDKVPGSLFPLLYSGVSHRNPDYSPEAKRIVFVSSETG | failed
